T1: tau peptide 352-380 (human)
T1 construct: Synthetic peptide (EZBiolabs), numbered on tau 2N4R
T1 peptide: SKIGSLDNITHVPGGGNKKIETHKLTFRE

T2: tau peptide 314-342 (human)
T2 construct: Synthetic peptide (EZBiolabs), numbered on tau 2N4R
T2 peptide: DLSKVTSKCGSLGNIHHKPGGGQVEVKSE

T3: tau peptide 282-311 (human)
T3 construct: Synthetic peptide (EZBiolabs), numbered on tau 2N4R; also called peptide derived from MTBRII
T3 peptide: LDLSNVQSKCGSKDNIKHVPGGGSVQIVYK

T4: tau peptide 256-285 (human)
T4 construct: Synthetic peptide (EZBiolabs), numbered on tau 2N4R
T4 peptide: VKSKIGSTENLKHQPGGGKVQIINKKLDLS

B1: AX004-IgG1, humanized DC8E8 RHD/RKA, IgG1 isotype (antibody)
heavy: not shown
light: DIVMTQSPLSLPVTPGEPASISCKSSQSLLNSRTRKNYLAWYLQKPGQSPQLLIYWASTRESGVPDRFTGSGSGTDFTLKISRVEAEDVGVYYCKQSFYLRTFGQGTKVEIKRTVAAPSVFIFPPSDEQLKSGTASVVCLLNNFYPREAKVQWKVDNALQSGNSQESVTEQDSKDSTYSLSSTLTLSKADYEKHKVYACEVTHQGLSSPVTKSFNRGEC
notes: Expressed in Expi293, purified on Protein A and by size exclusion
B2: AX005-IgG1, humanized DC8E8 RHE/RKA, IgG1 isotype (antibody)
heavy: not shown
light: DIVMTQSPLSLPVTPGEPASISCKSSQSLLNSRTRKNYLAWYLQKPGQSPQLLIYWASTRESGVPDRFTGSGSGTDFTLKISRVEAEDVGVYYCKQSFYLRTFGQGTKVEIKRTVAAPSVFIFPPSDEQLKSGTASVVCLLNNFYPREAKVQWKVDNALQSGNSQESVTEQDSKDSTYSLSSTLTLSKADYEKHKVYACEVTHQGLSSPVTKSFNRGEC
notes: as for B1
B3: AX016-IgG1, humanized DC8E8 RHD/RKB, IgG1 isotype (antibody)
heavy: not shown
light: DIVMSQSPLSLPVTPGEPASISCKSSQSLLNSRTRKNYLAWYLQKPGQSPQLLIYWASTRESGVPDRFTGSGSGTDFTLKISRVEAEDVGVYYCKQSFYLRTFGQGTKVEIKRTVAAPSVFIFPPSDEQLKSGTASVVCLLNNFYPREAKVQWKVDNALQSGNSQESVTEQDSKDSTYSLSSTLTLSKADYEKHKVYACEVTHQGLSSPVTKSFNRGEC
notes: as for B1
B4: AX017-IgG1, humanized DC8E8 RHE/RKB, IgG1 isotype (antibody)
heavy: not shown
light: DIVMSQSPLSLPVTPGEPASISCKSSQSLLNSRTRKNYLAWYLQKPGQSPQLLIYWASTRESGVPDRFTGSGSGTDFTLKISRVEAEDVGVYYCKQSFYLRTFGQGTKVEIKRTVAAPSVFIFPPSDEQLKSGTASVVCLLNNFYPREAKVQWKVDNALQSGNSQESVTEQDSKDSTYSLSSTLTLSKADYEKHKVYACEVTHQGLSSPVTKSFNRGEC
notes: as for B1
B5: AX004-IgG4, humanized DC8E8 RHD/RKA, IgG4 isotype (antibody)
heavy: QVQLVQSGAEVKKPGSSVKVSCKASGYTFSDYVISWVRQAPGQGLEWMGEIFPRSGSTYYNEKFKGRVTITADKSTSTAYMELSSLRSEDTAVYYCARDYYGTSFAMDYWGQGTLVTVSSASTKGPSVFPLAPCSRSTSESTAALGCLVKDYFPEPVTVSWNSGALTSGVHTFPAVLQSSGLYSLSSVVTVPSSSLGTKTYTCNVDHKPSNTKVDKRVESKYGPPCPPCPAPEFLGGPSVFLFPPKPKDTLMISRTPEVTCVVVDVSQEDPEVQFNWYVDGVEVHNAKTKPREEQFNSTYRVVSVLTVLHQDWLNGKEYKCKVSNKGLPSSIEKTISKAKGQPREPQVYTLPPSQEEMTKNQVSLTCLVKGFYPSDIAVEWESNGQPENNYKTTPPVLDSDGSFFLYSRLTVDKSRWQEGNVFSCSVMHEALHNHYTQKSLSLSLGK
light: DIVMTQSPLSLPVTPGEPASISCKSSQSLLNSRTRKNYLAWYLQKPGQSPQLLIYWASTRESGVPDRFTGSGSGTDFTLKISRVEAEDVGVYYCKQSFYLRTFGQGTKVEIKRTVAAPSVFIFPPSDEQLKSGTASVVCLLNNFYPREAKVQWKVDNALQSGNSQESVTEQDSKDSTYSLSSTLTLSKADYEKHKVYACEVTHQGLSSPVTKSFNRGEC
notes: Expressed in Expi293; also called AXON004-IgG4
B6: AX002-IgG4, humanized DC8E8 RHB/RKA, IgG4 isotype (antibody)
heavy: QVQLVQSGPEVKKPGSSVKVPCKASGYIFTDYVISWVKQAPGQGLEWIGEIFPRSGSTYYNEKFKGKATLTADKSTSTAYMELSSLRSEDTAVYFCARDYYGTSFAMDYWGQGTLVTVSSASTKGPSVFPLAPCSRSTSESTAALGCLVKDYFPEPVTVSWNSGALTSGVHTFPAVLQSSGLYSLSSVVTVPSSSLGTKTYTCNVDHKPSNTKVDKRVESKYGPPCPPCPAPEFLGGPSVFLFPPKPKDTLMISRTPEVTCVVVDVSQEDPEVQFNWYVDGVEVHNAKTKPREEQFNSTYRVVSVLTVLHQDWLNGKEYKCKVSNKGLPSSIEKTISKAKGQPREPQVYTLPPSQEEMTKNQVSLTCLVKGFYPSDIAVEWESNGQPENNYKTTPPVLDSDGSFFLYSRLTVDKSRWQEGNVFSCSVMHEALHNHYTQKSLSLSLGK
light: DIVMTQSPLSLPVTPGEPASISCKSSQSLLNSRTRKNYLAWYLQKPGQSPQLLIYWASTRESGVPDRFTGSGSGTDFTLKISRVEAEDVGVYYCKQSFYLRTFGQGTKVEIKRTVAAPSVFIFPPSDEQLKSGTASVVCLLNNFYPREAKVQWKVDNALQSGNSQESVTEQDSKDSTYSLSSTLTLSKADYEKHKVYACEVTHQGLSSPVTKSFNRGEC
notes: also called AXON002-IgG4
B7: AX005-IgG4, humanized DC8E8 RHE/RKA, IgG4 isotype (antibody)
heavy: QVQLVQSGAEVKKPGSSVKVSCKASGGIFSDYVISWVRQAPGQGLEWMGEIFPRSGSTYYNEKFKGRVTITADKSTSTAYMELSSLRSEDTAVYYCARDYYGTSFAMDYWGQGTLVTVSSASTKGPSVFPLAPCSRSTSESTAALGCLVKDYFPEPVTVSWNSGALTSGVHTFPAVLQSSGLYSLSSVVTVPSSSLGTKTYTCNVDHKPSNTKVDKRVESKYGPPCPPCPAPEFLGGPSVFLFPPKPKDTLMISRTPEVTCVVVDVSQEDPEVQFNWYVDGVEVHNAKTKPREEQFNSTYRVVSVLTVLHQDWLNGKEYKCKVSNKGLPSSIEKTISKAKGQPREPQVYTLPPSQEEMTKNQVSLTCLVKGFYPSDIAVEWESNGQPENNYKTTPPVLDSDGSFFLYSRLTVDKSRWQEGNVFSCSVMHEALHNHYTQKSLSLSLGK
light: DIVMTQSPLSLPVTPGEPASISCKSSQSLLNSRTRKNYLAWYLQKPGQSPQLLIYWASTRESGVPDRFTGSGSGTDFTLKISRVEAEDVGVYYCKQSFYLRTFGQGTKVEIKRTVAAPSVFIFPPSDEQLKSGTASVVCLLNNFYPREAKVQWKVDNALQSGNSQESVTEQDSKDSTYSLSSTLTLSKADYEKHKVYACEVTHQGLSSPVTKSFNRGEC
notes: Expressed in Expi293; also called AXON005-IgG4
B8: AX014-IgG4, humanized DC8E8 RHB/RKB, IgG4 isotype (antibody)
heavy: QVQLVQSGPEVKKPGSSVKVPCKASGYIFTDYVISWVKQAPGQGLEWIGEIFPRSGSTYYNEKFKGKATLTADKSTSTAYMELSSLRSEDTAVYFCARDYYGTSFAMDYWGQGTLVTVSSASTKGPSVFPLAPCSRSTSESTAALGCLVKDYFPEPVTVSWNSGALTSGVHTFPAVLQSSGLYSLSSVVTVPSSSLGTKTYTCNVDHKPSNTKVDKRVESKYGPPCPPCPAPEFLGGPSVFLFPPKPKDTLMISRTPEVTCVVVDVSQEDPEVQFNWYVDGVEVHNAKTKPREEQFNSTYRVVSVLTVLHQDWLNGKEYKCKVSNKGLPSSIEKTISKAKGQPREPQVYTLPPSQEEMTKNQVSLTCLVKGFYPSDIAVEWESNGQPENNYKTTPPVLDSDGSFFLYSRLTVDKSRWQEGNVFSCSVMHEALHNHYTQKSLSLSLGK
light: DIVMSQSPLSLPVTPGEPASISCKSSQSLLNSRTRKNYLAWYLQKPGQSPQLLIYWASTRESGVPDRFTGSGSGTDFTLKISRVEAEDVGVYYCKQSFYLRTFGQGTKVEIKRTVAAPSVFIFPPSDEQLKSGTASVVCLLNNFYPREAKVQWKVDNALQSGNSQESVTEQDSKDSTYSLSSTLTLSKADYEKHKVYACEVTHQGLSSPVTKSFNRGEC
notes: also called AXON014-IgG4
B9: AX016-IgG4, humanized DC8E8 RHD/RKB, IgG4 isotype (antibody)
heavy: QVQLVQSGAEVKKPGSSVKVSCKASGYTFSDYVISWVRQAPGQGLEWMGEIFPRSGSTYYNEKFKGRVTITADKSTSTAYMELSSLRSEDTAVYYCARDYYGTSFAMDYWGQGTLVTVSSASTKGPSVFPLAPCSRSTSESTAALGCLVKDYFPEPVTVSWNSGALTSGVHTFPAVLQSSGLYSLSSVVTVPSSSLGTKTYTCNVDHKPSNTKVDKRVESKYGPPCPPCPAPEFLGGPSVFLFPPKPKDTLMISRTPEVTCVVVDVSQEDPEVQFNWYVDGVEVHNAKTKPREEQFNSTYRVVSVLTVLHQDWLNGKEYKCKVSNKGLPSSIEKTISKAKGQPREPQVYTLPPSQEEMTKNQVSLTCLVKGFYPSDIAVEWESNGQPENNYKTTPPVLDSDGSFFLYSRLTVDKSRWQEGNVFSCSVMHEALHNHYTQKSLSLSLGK
light: DIVMSQSPLSLPVTPGEPASISCKSSQSLLNSRTRKNYLAWYLQKPGQSPQLLIYWASTRESGVPDRFTGSGSGTDFTLKISRVEAEDVGVYYCKQSFYLRTFGQGTKVEIKRTVAAPSVFIFPPSDEQLKSGTASVVCLLNNFYPREAKVQWKVDNALQSGNSQESVTEQDSKDSTYSLSSTLTLSKADYEKHKVYACEVTHQGLSSPVTKSFNRGEC
notes: Expressed in Expi293; also called AXON016-IgG4
B10: AX017-IgG4, humanized DC8E8 RHE/RKB, IgG4 isotype (antibody)
heavy: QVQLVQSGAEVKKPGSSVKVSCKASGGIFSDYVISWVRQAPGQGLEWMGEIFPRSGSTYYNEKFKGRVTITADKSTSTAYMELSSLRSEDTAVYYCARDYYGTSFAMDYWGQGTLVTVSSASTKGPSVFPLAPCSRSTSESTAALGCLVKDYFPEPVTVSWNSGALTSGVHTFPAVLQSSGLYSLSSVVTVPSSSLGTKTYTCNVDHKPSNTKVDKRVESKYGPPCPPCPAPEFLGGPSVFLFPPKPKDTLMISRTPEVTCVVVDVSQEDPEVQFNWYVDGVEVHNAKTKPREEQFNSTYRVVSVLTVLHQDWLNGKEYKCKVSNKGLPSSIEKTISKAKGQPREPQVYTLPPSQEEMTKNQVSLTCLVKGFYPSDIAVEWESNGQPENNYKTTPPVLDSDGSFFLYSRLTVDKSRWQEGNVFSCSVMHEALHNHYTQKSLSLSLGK
light: DIVMSQSPLSLPVTPGEPASISCKSSQSLLNSRTRKNYLAWYLQKPGQSPQLLIYWASTRESGVPDRFTGSGSGTDFTLKISRVEAEDVGVYYCKQSFYLRTFGQGTKVEIKRTVAAPSVFIFPPSDEQLKSGTASVVCLLNNFYPREAKVQWKVDNALQSGNSQESVTEQDSKDSTYSLSSTLTLSKADYEKHKVYACEVTHQGLSSPVTKSFNRGEC
notes: Expressed in Expi293; also called AXON017-IgG4
B11: AX038, humanized DC8E8 RHM/RKB (isotype not stated where tested) (antibody, V domains shown)
VH: QVQLVQSGAEVKKPGSSVKVSCKASGYIFSDYVISWVRQAPGQGLEWMGEIFPRSGSTYYNEKFKGRVTITADKSTSTAYMELSSLRSEDTAVYYCARDYYGTSFAMDYWGQGTLVTVSS
VL: DIVMSQSPLSLPVTPGEPASISCKSSQSLLNSRTRKNYLAWYLQKPGQSPQLLIYWASTRESGVPDRFTGSGSGTDFTLKISRVEAEDVGVYYCKQSFYLRTFGQGTKVEIKR
notes: also called RHM version
B12: AX001, humanized DC8E8 RHA/RKA (isotype not stated where tested) (antibody, V domains shown)
VH: QVQLVQSGAEVKKPGSSVKVSCKASGGTFSDYVISWVRQAPGQGLEWMGEIFPRSGSTYYNEKFKGRVTITADKSTSTAYMELSSLRSEDTAVYYCARDYYGTSFAMDYWGQGTLVTVSS
VL: DIVMTQSPLSLPVTPGEPASISCKSSQSLLNSRTRKNYLAWYLQKPGQSPQLLIYWASTRESGVPDRFTGSGSGTDFTLKISRVEAEDVGVYYCKQSFYLRTFGQGTKVEIKR
notes: also called initial humanized version
B13: AX014, humanized DC8E8 RHB/RKB (isotype not stated where tested) (antibody)
VH: QVQLVQSGPEVKKPGSSVKVPCKASGYIFTDYVISWVKQAPGQGLEWIGEIFPRSGSTYYNEKFKGKATLTADKSTSTAYMELSSLRSEDTAVYFCARDYYGTSFAMDYWGQGTLVTVSS
light: DIVMSQSPLSLPVTPGEPASISCKSSQSLLNSRTRKNYLAWYLQKPGQSPQLLIYWASTRESGVPDRFTGSGSGTDFTLKISRVEAEDVGVYYCKQSFYLRTFGQGTKVEIKRTVAAPSVFIFPPSDEQLKSGTASVVCLLNNFYPREAKVQWKVDNALQSGNSQESVTEQDSKDSTYSLSSTLTLSKADYEKHKVYACEVTHQGLSSPVTKSFNRGEC
notes: 2 (a CDR)
B14: AX037, humanized DC8E8 RHM/RKA (isotype not stated where tested) (antibody, V domains shown)
VH: QVQLVQSGAEVKKPGSSVKVSCKASGYIFSDYVISWVRQAPGQGLEWMGEIFPRSGSTYYNEKFKGRVTITADKSTSTAYMELSSLRSEDTAVYYCARDYYGTSFAMDYWGQGTLVTVSS
VL: DIVMTQSPLSLPVTPGEPASISCKSSQSLLNSRTRKNYLAWYLQKPGQSPQLLIYWASTRESGVPDRFTGSGSGTDFTLKISRVEAEDVGVYYCKQSFYLRTFGQGTKVEIKR
notes: also called RHM version
B15: AX028-IgG4, RHD heavy chain with chimeric DC8E8 kappa light chain, IgG4 isotype (antibody, V domains shown)
VH: QVQLVQSGAEVKKPGSSVKVSCKASGYTFSDYVISWVRQAPGQGLEWMGEIFPRSGSTYYNEKFKGRVTITADKSTSTAYMELSSLRSEDTAVYYCARDYYGTSFAMDYWGQGTLVTVSS
VL: DIVMSQSPSSLAVSAGEKVTMSCKSSQSLLNSRTRKNYLAWYQQKPGQSPKLLIYWASTRESGVPDRFTGSGSGTDFTLTISSVQAEDLAVYYCKQSFYLRTFGGGTKLDIKR
notes: also called AXON028-IgG4; RHD/VK
B16: AX026-IgG4, RHB heavy chain with chimeric DC8E8 kappa light chain, IgG4 isotype (antibody, V domains shown)
VH: QVQLVQSGPEVKKPGSSVKVPCKASGYIFTDYVISWVKQAPGQGLEWIGEIFPRSGSTYYNEKFKGKATLTADKSTSTAYMELSSLRSEDTAVYFCARDYYGTSFAMDYWGQGTLVTVSS
VL: DIVMSQSPSSLAVSAGEKVTMSCKSSQSLLNSRTRKNYLAWYQQKPGQSPKLLIYWASTRESGVPDRFTGSGSGTDFTLTISSVQAEDLAVYYCKQSFYLRTFGGGTKLDIKR
notes: also called AXON026-IgG4; RHB/VK
B17: AX029-IgG4, RHE heavy chain with chimeric DC8E8 kappa light chain, IgG4 isotype (antibody, V domains shown)
VH: QVQLVQSGAEVKKPGSSVKVSCKASGGIFSDYVISWVRQAPGQGLEWMGEIFPRSGSTYYNEKFKGRVTITADKSTSTAYMELSSLRSEDTAVYYCARDYYGTSFAMDYWGQGTLVTVSS
VL: DIVMSQSPSSLAVSAGEKVTMSCKSSQSLLNSRTRKNYLAWYQQKPGQSPKLLIYWASTRESGVPDRFTGSGSGTDFTLTISSVQAEDLAVYYCKQSFYLRTFGGGTKLDIKR
notes: also called AXON029-IgG4; RHE/VK

What was measured:
[1] = molecular target: T5, misdisordered truncated tau 151-391/4R (human, UniProt P10636 468-708); test: cell-based or functional assay
T5 sequence (P10636 468-708): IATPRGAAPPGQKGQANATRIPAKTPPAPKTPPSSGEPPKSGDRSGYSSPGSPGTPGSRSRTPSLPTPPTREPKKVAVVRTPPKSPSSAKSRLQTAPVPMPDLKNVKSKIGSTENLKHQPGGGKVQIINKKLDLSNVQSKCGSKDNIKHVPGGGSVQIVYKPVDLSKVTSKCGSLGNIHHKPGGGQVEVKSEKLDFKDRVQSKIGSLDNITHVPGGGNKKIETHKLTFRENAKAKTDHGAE

[2] = molecular target: T1, tau peptide 352-380; test: direct ELISA, tau peptide coated on plate
[3] = molecular target: T2, tau peptide 314-342; test: direct ELISA, tau peptide coated on plate
[4] = molecular target: T3, tau peptide 282-311; test: direct ELISA, tau peptide coated on plate
[5] = molecular target: T4, tau peptide 256-285; test: direct ELISA, tau peptide coated on plate
[6] = molecular target: T5, misdisordered truncated tau 151-391/4R; test: binding ELISA of IgG4 versions, plate coated with Tau 151-391/4R
[7] = molecular target: T5, misdisordered truncated tau 151-391/4R; test: assay not named in the sentence (tau binding assay of the examples)

Binder	binding result [2]	binding result [3]	binding result [4]	other results
B1	binds	binds	binds	amount of fibrillized pathological tau forms (Thioflavin T fluorescence), antibody at 10 uM [1]: < 3%; binding result [5]: binds
B2	binds	binds	binds	–
B3	binds	binds	binds	amount of fibrillized pathological tau forms (Thioflavin T fluorescence), antibody at 10 uM [1]: < 3%; binding result [5]: binds
B4	binds	binds	binds	–
B5	binds	binds	binds	amount of fibrillized pathological tau forms (Thioflavin T fluorescence), antibody at 10 uM [1]: < 3%; binding result [5]: binds
B6	–	–	–	binding result [6]: binds
B7	binds	binds	binds	–
B8	–	–	–	binding result [6]: binds
B9	binds	binds	binds	amount of fibrillized pathological tau forms (Thioflavin T fluorescence), antibody at 10 uM [1]: < 3%; binding result [5]: binds
B10	binds	binds	binds	–
B11	–	–	–	binding result [7]: binds
B12	–	–	–	fold decrease in binding affinity relative to chimeric DC8E8 [7]: 10 fold
B13	–	–	–	binding result [7]: binds
B14	–	–	–	binding result [7]: binds
B15	–	–	–	binding result [6]: binds
B16	–	–	–	binding result [6]: binds
B17	–	–	–	binding result [6]: binds

Source: patent US20180142007A1 (AXON NEUROSCIENCE, published 2018)
